# Laboratory results published in PMC8137924, “Structural basis for allosteric regulation of Human Topoisomerase IIα” (Nature Communications, 2021).
# Target: the molecule itself
# Experiment: cryo-EM structure; hTopo IIα with 30 bp doubly nicked DNA (1:1, 20 µM), 0.5 mM etoposide, 0.5 mM ADPNP, cross-linked with 1 mM BS3; 20 mM Hepes, 100 mM KAc, 50 mM Na-glutamate, 5 mM MgAc2, 0.5 mM TCEP, pH 7.5, 8 mM CHAPSO; single-particle analysis, State 1 (closed) and State 2 (pre-open)
protein,measurement,value
"full-length human Topo IIα (1–1531) (enzyme, UniProt P11388 1-1531, looked up, human DNA topoisomerase IIα (TOP2A gene), full length, residues 1-1531; Homodimer; Tags were removed with P3C (PreScission) protease; also called hTopo IIα; human topoisomerase IIα isoform; source: BHK21 C13-2P cells infected with recombinant MVA-T7 virus, purified (Ni chelating resin, StrepTrap, heparin); not shown: Twin-strep, N-terminal, cleaved; His10, C-terminal, cleaved) MEVSPLQPVNENMQVNKIKKNEDAKKRLSVERIYQKKTQLEHILLRPDTYIGSVELVTQQMWVYDEDVGINYREVTFVPGLYKIFDEILVNAADNKQRDPKMSCIRVTIDPENNLISIWNNGKGIPVVEHKVEKMYVPALIFGQLLTSSNYDDDEKKVTGGRNGYGAKLCNIFSTKFTVETASREYKKMFKQTWMDNMGRAGEMELKPFNGEDYTCITFQPDLSKFKMQSLDKDIVALMVRRAYDIAGSTKDVKVFLNGNKLPVKGFRSYVDMYLKDKLDETGNSLKVIHEQVNHRWEVCLTMSEKGFQQISFVNSIATSKGGRHVDYVADQIVTKLVDVVKKKNKGGVAVKAHQVKNHMWIFVNALIENPTFDSQTKENMTLQPKSFGSTCQLSEKFIKAAIGCGIVESILNWVKFKAQVQLNKKCSAVKHNRIKGIPKLDDANDAGGRNSTECTLILTEGDSAKTLAVSGLGVVGRDKYGVFPLRGKILNVREASHKQIMENAEINNIIKIVGLQYKKNYEDEDSLKTLRYGKIMIMTDQDQDGSHIKGLLINFIHHNWPSLLRHRFLEEFITPIVKVSKNKQEMAFYSLPEFEEWKSSTPNHKKWKVKYYKGLGTSTSKEAKEYFADMKRHRIQFKYSGPEDDAAISLAFSKKQIDDRKEWLTNFMEDRRQRKLLGLPEDYLYGQTTTYLTYNDFINKELILFSNSDNERSIPSMVDGLKPGQRKVLFTCFKRNDKREVKVAQLAGSVAEMSSYHHGEMSLMMTIINLAQNFVGSNNLNLLQPIGQFGTRLHGGKDSASPRYIFTMLSSLARLLFPPKDDHTLKFLYDDNQRVEPEWYIPIIPMVLINGAEGIGTGWSCKIPNFDVREIVNNIRRLMDGEEPLPMLPSYKNFKGTIEELAPNQYVISGEVAILNSTTIEISELPVRTWTQTYKEQVLEPMLNGTEKTPPLITDYREYHTDTTVKFVVKMTEEKLAEAERVGLHKVFKLQTSLTCNSMVLFDHVGCLKKYDTVLDILRDFFELRLKYYGLRKEWLLGMLGAESAKLNNQARFILEKIDGKIIIENKPKKELIKVLIQRGYDSDPVKAWKEAQQKVPDEEENEESDNEKETEKSDSVTDSGPTFNYLLDMPLWYLTKEKKDELCRLRNEKEQELDTLKRKSPSDLWKEDLATFIEELEAVEAKEKQDEQVGLPGKGGKAKGKKTQMAEVLPSPRGQRVIPRITIEMKAEAEKKNKKKIKNENTEGSPQEDGVELEGLKQRLEKKQKREPGTKTKKQTTLAFKPIKKGKKRNPWSDSESDRSSDESNFDVPPRETEPRRAATKTKFTMDLDSDEDFSDFDEKTDDEDFVPSDASPPKTKTSPKLSNKELKPQKSVVSDLEADDVKGSVPLSSSPPATHFPDETEITNPVPKKNVTVKKTAAKSQSSTSTTGAKKRAAPKGTKRDPALNSGVSQKPDPAKTKNRRKRKPSTSDDSDSNFEKIVSKAVTSKKSKGESDDFHMDFDSAVAPRAKSVRAKKPIKYLEESDEDDLF",binding result,binds
